From patent US20140161804A1 (AbbVie / Abbott, published 2014)
Changes are numbered by the printed parent chain.

B1: hMAK199-4-h10F7-M11.8 DVD-Ig (bispecific antibody, human IgG1, kappa, L234A L235A)
heavy: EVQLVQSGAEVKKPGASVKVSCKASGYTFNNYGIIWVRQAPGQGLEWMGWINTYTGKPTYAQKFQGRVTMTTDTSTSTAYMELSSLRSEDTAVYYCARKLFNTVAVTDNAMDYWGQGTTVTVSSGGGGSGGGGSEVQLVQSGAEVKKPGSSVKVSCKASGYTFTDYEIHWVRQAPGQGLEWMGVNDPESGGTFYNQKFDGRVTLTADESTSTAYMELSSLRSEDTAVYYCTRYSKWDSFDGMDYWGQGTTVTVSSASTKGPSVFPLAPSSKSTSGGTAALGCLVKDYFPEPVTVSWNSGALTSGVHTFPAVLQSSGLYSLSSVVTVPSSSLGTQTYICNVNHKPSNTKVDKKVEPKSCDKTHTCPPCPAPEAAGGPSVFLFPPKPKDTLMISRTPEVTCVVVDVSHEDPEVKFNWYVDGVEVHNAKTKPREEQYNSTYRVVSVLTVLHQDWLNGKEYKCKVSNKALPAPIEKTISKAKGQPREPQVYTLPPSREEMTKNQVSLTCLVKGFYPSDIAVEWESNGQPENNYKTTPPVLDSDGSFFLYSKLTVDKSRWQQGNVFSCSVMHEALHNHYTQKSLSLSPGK
light: DIQMTQSPSSLSASVGDRVTITCRASQDIENYLNWYQQKPGKAPKLLIYYTSRLQSGVPSRFSGSGSGTDFTLTISSLQPEDFATYFCQQGNTQPPTFGQGTKLEIKRGGSGGGGSGDIQMTQSPSSLSASVGDRVTITCRASSGIISYIDWFQQKPGKAPKRLIYATFDLASGVPSRFSGSGSGTDYTLTISSLQPEDFATYYCRQVGSYPETFGQGTKLEIKRTVAAPSVFIFPPSDEQLKSGTASVVCLLNNFYPREAKVQWKVDNALQSGNSQESVTEQDSKDSTYSLSSTLTLSKADYEKHKVYACEVTHQGLSSPVTKSFNRGEC
notes: DVD-Ig; IgG1 234,235 mut, kappa; GS10 linkers; also called HMAK199-4-GS10-H10F7-M11 DVD
B2: hMAK199-4-h10F7-M11.8 DVD-Ig wt (bispecific antibody, human IgG1, kappa)
heavy: not shown
light: B1 light
notes: DVD-Ig; wild-type IgG1, kappa; GS10 linkers; Uncertain; also called HMAK199-4-h10F7-M11.8 HC DVD wt
B3: hMAK195-21-h10F7-M11.8 DVD-Ig wt (bispecific antibody, human IgG1, kappa)
heavy: not shown
light: DIQMTQSPSSLSASVGDRVTITCRASQLVSSAVAWYQQKPGKAPKLLIYWASARHTGVPSRFSGSGSGTDFTLTISSLQPEDFATYYCQQHYKTPFTFGQGTKLEIKRGGSGGGGSGDIQMTQSPSSLSASVGDRVTITCRASSGIISYIDWFQQKPGKAPKRLIYATFDLASGVPSRFSGSGSGTDYTLTISSLQPEDFATYYCRQVGSYPETFGQGTKLEIKRTVAAPSVFIFPPSDEQLKSGTASVVCLLNNFYPREAKVQWKVDNALQSGNSQESVTEQDSKDSTYSLSSTLTLSKADYEKHKVYACEVTHQGLSSPVTKSFNRGEC
notes: DVD-Ig; wild-type IgG1, kappa; GS10 linkers; also called HMAK195-21-h10F7-M11.8 HC DVD wt
B4: hMAK195-24-h10F7-M11.8 DVD-Ig wt (bispecific antibody, human IgG1, kappa)
heavy: not shown
light: B3 light with R24K, A53T, R54L, K93R
notes: DVD-Ig; wild-type IgG1, kappa; GS10 linkers; also called HMAK195-24-h10F7-M11.8 HC DVD wt
B5: hMAK195-24-h10F7-M11.8 DVD-Ig (bispecific antibody, human IgG1, kappa, L234A L235A)
heavy: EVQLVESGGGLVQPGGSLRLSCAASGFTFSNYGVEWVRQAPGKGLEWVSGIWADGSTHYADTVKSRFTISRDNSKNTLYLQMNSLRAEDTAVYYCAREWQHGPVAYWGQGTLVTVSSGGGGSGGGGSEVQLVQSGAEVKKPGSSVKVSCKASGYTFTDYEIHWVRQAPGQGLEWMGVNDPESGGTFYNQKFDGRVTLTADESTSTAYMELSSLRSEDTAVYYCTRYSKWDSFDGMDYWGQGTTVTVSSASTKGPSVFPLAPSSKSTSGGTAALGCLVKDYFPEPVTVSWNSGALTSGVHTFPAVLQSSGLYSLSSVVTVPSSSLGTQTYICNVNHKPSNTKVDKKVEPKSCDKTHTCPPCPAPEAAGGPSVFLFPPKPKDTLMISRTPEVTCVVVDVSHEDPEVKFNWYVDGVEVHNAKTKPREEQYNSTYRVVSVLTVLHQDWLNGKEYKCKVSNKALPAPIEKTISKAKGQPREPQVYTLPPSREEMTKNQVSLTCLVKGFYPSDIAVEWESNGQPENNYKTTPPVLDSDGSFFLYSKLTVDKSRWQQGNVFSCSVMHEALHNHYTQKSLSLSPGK
light: B3 light with R24K, A53T, R54L, K93R
notes: DVD-Ig; IgG1 234,235 mut, kappa; GS10 linkers; also called hMAK195-24-GS10-M11 DVD
B6: hMAK195-21-h10F7-M11.8 DVD-Ig (bispecific antibody, human IgG1, kappa, L234A L235A)
heavy: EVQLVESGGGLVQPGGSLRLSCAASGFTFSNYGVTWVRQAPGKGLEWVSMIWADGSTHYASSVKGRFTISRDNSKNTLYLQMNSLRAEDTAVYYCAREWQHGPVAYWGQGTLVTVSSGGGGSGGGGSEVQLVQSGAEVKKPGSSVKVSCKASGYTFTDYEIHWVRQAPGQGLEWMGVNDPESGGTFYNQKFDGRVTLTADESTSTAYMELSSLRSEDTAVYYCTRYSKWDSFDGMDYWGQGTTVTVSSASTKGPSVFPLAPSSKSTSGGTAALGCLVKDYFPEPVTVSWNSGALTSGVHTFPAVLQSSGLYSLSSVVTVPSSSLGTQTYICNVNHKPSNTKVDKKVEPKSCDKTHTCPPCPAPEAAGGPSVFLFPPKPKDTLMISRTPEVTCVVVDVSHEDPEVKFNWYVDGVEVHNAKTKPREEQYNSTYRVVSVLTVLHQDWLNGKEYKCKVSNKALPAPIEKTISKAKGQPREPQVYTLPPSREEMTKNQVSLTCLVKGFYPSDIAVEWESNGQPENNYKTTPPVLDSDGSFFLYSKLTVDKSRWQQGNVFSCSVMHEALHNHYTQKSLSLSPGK
light: B3 light
notes: DVD-Ig, TNF outer / IL-17 inner domain; IgG1 234,235 mut, kappa; GS10 linkers; also called hMAK195-21-GS10-M11 DVD

Biological target: T1, Rhesus TNFa (rhesus, UniProt P48094 77-233)
T1 construct: also called Rhesus TNF-alpha
T1 sequence (P48094 77-233 limits assumed): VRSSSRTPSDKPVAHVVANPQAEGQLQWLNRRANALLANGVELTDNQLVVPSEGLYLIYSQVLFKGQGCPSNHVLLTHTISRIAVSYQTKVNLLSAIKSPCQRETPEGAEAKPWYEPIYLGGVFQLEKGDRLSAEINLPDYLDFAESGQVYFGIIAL
Experiment: SPR (Biacore T200), DVD-Ig captured by anti-human IgG Fc, antigen in solution
Description: (§1) The binding of antibodies to purified recombinant IL-17 and TNFα proteins were determined by surface plasmon resonance-based measurements with a Biacore® T200 instrument (GE Healthcare) using running HBS-EP (10 mM HEPES [pH 7.4], 150 mM NaCl, 3 mM EDTA, and 0.005% surfactant P20) containing 0.1 mg/ml BSA at 25° C. All chemicals were obtained from Biacore® AB (GE Healthcare) or otherwise from a different source as described in the text. Approximately 5000 RU of goat anti-human IgG (Fcγ) fragment specific polyclonal antibody (Pierce Biotechnology Inc, Rockford, Ill.) diluted in 10 mM sodium acetate (pH 4.5) was directly immobilized across a CM5 research grade biosensor chip using a standard amine coupling kit according to manufacturer's instructions and procedures at 25 ug/ml. Unreacted moieties on the biosensor surface were blocked with ethanolamine. Modified carboxymethyl dextran surface in flowcell 2, 3 and 4 were used as a reaction surface. Modified carboxymethyl dextran with goat IgG in flow cell 1 was used as the reference surface. For kinetic analysis, rate equations derived from the 1:1 Langmuir binding model were fitted simultaneously to association and dissociation phases of all six injections (using global fit analysis with local float for Rmax) with the use of Biacore T200 Evaluation software v.1.0. Purified antibodies were diluted in HEPES-buffered saline for capture across goat anti-human IgG specific reaction surfaces. Antibodies to be captured as ligand (1-5 μg/ml) were injected over reaction matrices at a flow rate of 50 μl/minute. Association phase was monitored for 5 minutes, while dissociation phase was monitored for 10-60 minutes to accommodate for slower off-rates. The association and dissociation rate constants, ka (unit M-1 s-1) and kd (unit s-1) were determined under a continuous flow rate of 50 μl/minute. Rate constants were derived by making kinetic binding measurements at six different antigen concentrations ranging from 0.78 nM to 100 nM, depending on the species of IL-17 or TNFα tested. The association ka, dissociation rate kd and equilibrium dissociation constant KD were calculated with the use of the same Biacore T200 Evaluation software v.1.0.

Binder | Kd [nM] | koff [s⁻¹] | kon [M⁻¹ s⁻¹]
B1 | 0.00772 | 2.25e-05 | 2.91e+06
B2 | 0.00813 | 2.48e-05 | 3.05e+06
B3 | 0.031 | 0.000141 | 4.56e+06
B4 | 0.0752 | 0.00046 | 6.12e+06
B5 | 0.0716 | 0.000343 | 4.78e+06
B6 | 0.0254 | 0.000132 | 5.21e+06

Biological target: T2, Cynomolgus monkey IL-17A (cynomolgus monkey, UniProt A0A2K5TTB0 24-155)
T2 construct: also called Cyno IL-17AA; Cyno IL17AA
T2 sequence (A0A2K5TTB0 entry or part of it): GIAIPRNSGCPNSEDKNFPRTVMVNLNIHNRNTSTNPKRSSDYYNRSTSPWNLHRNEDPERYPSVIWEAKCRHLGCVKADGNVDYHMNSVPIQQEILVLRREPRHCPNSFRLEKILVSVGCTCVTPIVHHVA
Experiment: as above
Description: as §1

Binder | Kd [nM] | koff [s⁻¹] | kon [M⁻¹ s⁻¹]
B1 | 0.00861 | 2.57e-06 | 299000
B2 | 0.0113 | 3.15e-06 | 278000
B3 | 0.0109 | 2.21e-06 | 203000
B4 | 0.0201 | 4.29e-06 | 214000
B5 | 0.0241 | 6.25e-06 | 259000
B6 | 0.0253 | 6.28e-06 | 248000

Biological target: T3, Human IL-17A (human, UniProt Q16552 20-155, limits assumed)
T3 construct: Biotinylated in the ELISAs; purified recombinant protein in SPR; also called hIL17A; hIL-17
T3 sequence (Q16552 20-155 limits assumed): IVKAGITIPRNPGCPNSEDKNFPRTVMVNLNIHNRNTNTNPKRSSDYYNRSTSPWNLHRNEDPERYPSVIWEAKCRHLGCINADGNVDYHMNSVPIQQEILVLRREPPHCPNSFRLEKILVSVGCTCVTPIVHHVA
Experiment: as above
Description: as §1

Binder | Kd [nM] | koff [s⁻¹] | kon [M⁻¹ s⁻¹]
B1 | 0.0271 | 8.76e-06 | 323000
B2 | 0.0259 |  | 311000
B3 | 0.0386 | 9.26e-06 | 239000
B4 | 0.0363 | 8.48e-06 | 233000
B5 | 0.0427 | 1.07e-05 | 251000
B6 | 0.0434 | 1.05e-05 | 242000

Biological target: T3, Human IL-17A
Experiment: ELISA, captured DVD-Ig, biotin-human IL-17 titrated
Description: The following protocol is used to characterize the binding of TNF/IL-17 DVD-Ig proteins to human TNF and IL-17 by enzyme-linked immunosorbent assay (ELISA). An ELISA plate was coated with 50 μl per well of goat anti mouse IgG-Fc at 2 μg/ml, overnight at 4° C. The plate was washed 3 times with PBS/Tween. 50 μl Mab diluted to 1 μg/ml in PBS/0.1% BSA was added to appropriate wells and incubated for 1 hour at room temperature (RT). The plate was washed 3 times with PBS/Tween. 50 μl of serial diluted biotin-human TNF or IL-17 was added to appropriate wells and incubated for 1 hour at RT. The plate was washed 3 times with PBS/Tween. 50 μl of streptavidin-HRP diluted 1:10,000 in PBS/0.1% BSA was added to appropriate wells and incubated for 1 hour at RT. The plate was washed 3 times with PBS/Tween. 50 μl of TMB was added to appropriate wells and the reaction allowed to proceed for 1 minute. The reaction was stopped with 50 μl/well 2N H₂SO₄ and the absorbance read at 450 nm.

Binder | EC50 [nM]
B1 | 0.13
B2 | 0.1
B3 | 0.11
B4 | 0.12
B5 | 0.084
B6 | 0.095
